Patent US20120027722A1 (MEDICAL RESEARCH COUNCIL, published 2012)
Where a chain is given by its changes, count along the chain named. Where two headings read alike, the source gives them in different places. No end group written: not given here.

How the values were obtained:
AP33 mimotope peptide H6 [1] = target: T1, AP33 mimotope peptide H6; experiment: peptide ELISA: biotinylated peptide on streptavidin plate, COS7 supernatant, anti-human kappa HRP, OD 655 nm
T1 construct: captured on streptavidin plates; also called mimotope H6; H6 peptide
T1 peptide: VELRNLGGTWRPGSGK-biotin

AP33 mimotope peptide H6 [2] = target: T1, AP33 mimotope peptide H6; experiment: as above
Peptide D3 [3] = target: T2, Peptide D3; experiment: as above
T2 construct: member of the group m28

E2 peptide B1 [4] = target: T3, E2 peptide B1 (Hepatitis C virus, genotype 2b (Table 5)); experiment: as above
AP33 mimotope peptide H6 [5] = target: T1, AP33 mimotope peptide H6; experiment: as above
Peptide D3 [6] = target: T2, Peptide D3; experiment: as above; remark: listed apart in the source
E2 peptide B1 [7] = target: T3, E2 peptide B1; experiment: as above; remark: listed apart in the source
E2 peptide C2 [8] = target: T4, E2 peptide C2 (Hepatitis C virus, genotype 1a (Table 5), not fully specified (residue 16, C-terminus)); experiment: as above
T4 peptide: QLINTNGSWHVNGSGK

[9] = target: T5, soluble HCV E2 truncated at amino acid 661 (sE2661), His-tagged (Hepatitis C virus (isolate )); experiment: SPR (BIAcore A100), antibody captured on anti-human Fc chip, sE2 injected 1.56-50 nM, 1:1 Langmuir fit
T5 construct: extracellular domain; also called soluble E2

[10] = target: T6, HCV E1E2 heterodimer expressed on the surface of 293T cells (Hepatitis C virus (isolate )); experiment: Scatchard analysis, 125I-antibody versus unlabeled antibody on E1E2-transfected 293T cells
T6 construct: whole, on cells; also called cell surface expressed E2; E1E2 Scatchard

[11] = target: HCV E1E2 glycoproteins, isolate 5.15.11 (on HCVpp) (Hepatitis C virus genotype 5 (5.15.11)); experiment: cell-based or functional assay
[12] = target: HCV E1E2 glycoproteins, isolate 2A2.4 (on HCVpp) (Hepatitis C virus genotype 2 (2A2.4)); experiment: cell-based or functional assay
[13] = target: HCV E1E2 glycoproteins, isolate 1A20.8 (on HCVpp) (Hepatitis C virus genotype 1 (1A20.8)); experiment: cell-based or functional assay
[14] = target: HCV E1E2 glycoproteins, isolate 2B1.1 (on HCVpp) (Hepatitis C virus genotype 2 (2B1.1)); experiment: cell-based or functional assay
[15] = target: HCV E1E2 glycoproteins, isolate 4.21.16 (on HCVpp) (Hepatitis C virus genotype 4 (4.21.16)); experiment: cell-based or functional assay
[16] = target: HCV E1E2 glycoproteins, isolate 1B5.23 (on HCVpp) (Hepatitis C virus genotype 1 (1B5.23)); experiment: cell-based or functional assay
[17] = target: HCV E1E2 glycoproteins, genotype 3a isolate F4/2-35 (on HCVpp) (Hepatitis C virus genotype 3a (F4/2-35)); experiment: cell-based or functional assay
[18] = target: HCV E1E2 glycoproteins, isolate 6.5.8 (on HCVpp) (Hepatitis C virus genotype 6 (6.5.8)); experiment: cell-based or functional assay
[19] = target: HCV E1E2 glycoproteins, genotype 2a isolate JFH1 (on HCVpp) (Hepatitis C virus genotype 2a (JFH1), UniProt Q99IB8 192-383; Q99IB8 384-750); experiment: cell-based or functional assay
[20] = target: HCV E1E2 glycoproteins, genotype 1b (Con1) (Hepatitis C virus genotype 1b (Con1), UniProt Q9WMX2 192-383; Q9WMX2 384-746); experiment: cell-based or functional assay
[21] = target: HCV E1E2 glycoproteins, genotype 2a (J6) (Hepatitis C virus genotype 2a (J6)); experiment: cell-based or functional assay
AP33 mimotope peptide H6 [22] = target: T1, AP33 mimotope peptide H6; experiment: peptide ELISA: biotinylated peptide on streptavidin plate, COS7 supernatant, anti-human kappa HRP, OD 655 nm
Peptide D3 [23] = target: T2, Peptide D3; experiment: as above; remark: listed apart in the source
E2 peptide B1 [24] = target: T3, E2 peptide B1; experiment: as above; remark: listed apart in the source
E2 peptide C2 [25] = target: T4, E2 peptide C2; experiment: as above
[26] = target: T6, HCV E1E2 heterodimer expressed on the …; experiment: Scatchard analysis, 125I-Fab versus unlabeled Fab on E1E2-transfected 293T cells
[27] = target: T5, soluble HCV E2 truncated at amino acid …; experiment: SPR (BIAcore), sE2
AP33 mimotope peptide H6 [28] = target: T1, AP33 mimotope peptide H6; experiment: peptide ELISA: biotinylated peptide on streptavidin plate, COS7 supernatant, anti-human kappa HRP, OD 655 nm
Peptide D3 [29] = target: T2, Peptide D3; experiment: as above; remark: listed apart in the source
E2 peptide B1 [30] = target: T3, E2 peptide B1; experiment: as above; remark: listed apart in the source
E2 peptide C2 [31] = target: T4, E2 peptide C2; experiment: as above
AP33 mimotope peptide H6 [32] = target: T1, AP33 mimotope peptide H6; experiment: as above
Peptide D3 [33] = target: T2, Peptide D3; experiment: as above; remark: listed apart in the source
E2 peptide B1 [34] = target: T3, E2 peptide B1; experiment: as above; remark: listed apart in the source

B1: humanized AP33 antibody RHb-h/RK2bc (antibody, V domains shown)
VH: QVQLQESGPGLVKPSETLSLTCTVSGDSITSGYWNWIRQPPGRALEYMGYISYSGSTYYNLSLRSRITISRDTSKNQYSLRLSSVTAADTAMYYCALITTTTYAMDYWGQGTTVTVS
VL: EIVLTQSPSSLSASVGDRVTITCRASESVDGYGNSFLHWFQQKPGKAPKLLIYLASNLNSGVPSRFSGSGSRTDFTLTISSLQPEDFATYYCQQNNVDPWTFGQGTKLEIK
notes: also called RHbcdefgh/RK2bc
- EC50 (read off the curve) (AP33 mimotope peptide H6 [1]): ~0.03 µg/mL
- EC50 (read off the curve) (AP33 mimotope peptide H6 [2]): ~0.04 µg/mL
- EC50 (read off the curve) (Peptide D3 [3]): ~0.05 µg/mL
- binding result (E2 peptide B1 [4]): no binding (tested: about 1400 ng/ml)

B2: humanized AP33 antibody RH-C/RK2bc (antibody, V domains shown)
VH: QVQLQESGPGLVKPSETLSLTCTVSGDSITSGYWNWIRQPPGRALEWMGYISYSGSTYYNLSLRSRITISRDTSKNQYSLRLSSVTAADTAMYYCALITTTTYAMDYWGQGTTVTVSS
VL: B1 VL
- EC50 (read off the curve) (AP33 mimotope peptide H6 [5]): ~0.04 µg/mL
- EC50 (read off the curve) (Peptide D3 [6]): ~0.05 µg/mL
- binding result (E2 peptide B1 [7]): no binding (tested: about 2200 ng/ml)
- binding result (E2 peptide C2 [8]): binds

B3: humanized AP33 antibody RH-C/RK2b (antibody, V domains shown)
VH: B2 VH
VL: B1 VL with R72G
notes: also called RH-C antibody
- Kd [9]: 3.8 nM
- Kd [10]: 5 nM
- IC50 of HCVpp infection (Huh-7, luciferase) [11]: 0.053 µg/mL
- IC90 of HCVpp infection (Huh-7, luciferase) [11]: 0.82 µg/mL
- IC50 of HCVpp infection (Huh-7, luciferase) [12]: 0.51 µg/mL
- IC90 of HCVpp infection (Huh-7, luciferase) [12]: 6 µg/mL
- IC50 of HCVpp infection (Huh-7, luciferase) [13]: 1.6 µg/mL
- IC90 of HCVpp infection (Huh-7, luciferase) [13]: 15 µg/mL
- IC50 of HCVpp infection (Huh-7, luciferase) [14]: 3 µg/mL
- IC90 of HCVpp infection (Huh-7, luciferase) [14]: > 15 µg/mL
- IC50 of HCVpp infection (Huh-7, luciferase) [15]: < 0.41 µg/mL
- IC90 of HCVpp infection (Huh-7, luciferase) [15]: 0.92 µg/mL
- IC50 of HCVpp infection (Huh-7, luciferase) [16]: 0.9 µg/mL
- IC90 of HCVpp infection (Huh-7, luciferase) [16]: 8.3 µg/mL
- IC50 of HCVpp infection (Huh-7, luciferase) [17]: < 0.41 µg/mL
- IC90 of HCVpp infection (Huh-7, luciferase) [17]: 2.15 µg/mL
- IC50 of HCVpp infection (Huh-7, luciferase) [18]: < 0.41 µg/mL
- IC90 of HCVpp infection (Huh-7, luciferase) [18]: 1.8 µg/mL
- IC50 of HCVpp infection (Huh-7, luciferase) [19]: 0.64 µg/mL
- IC90 of HCVpp infection (Huh-7, luciferase) [19]: 7 µg/mL
- EC50, neutralization of Con1 HCVpp entry (Huh-7.5, luciferase) [20]: 0.511 µg/mL
- EC50, neutralization of J6 HCVpp entry (Huh-7.5, luciferase) [21]: 0.793 µg/mL
- neutralization of J6 HCVcc infection, fold better than AP33 [21]: ≥ 4.7 fold

B4: RHb-h/Vl (humanized heavy chain RHb-h with chimeric light chain) (antibody, V domains shown)
VH: B1 VH
VL: NIVLTQSPVSLAVSLGQRATISCRASESVDGYGNSFLHWFQQKPGQPPKLLIYLASNLNSGVPARFSGSGSRTDFTLTIDPVEADDAATYYCQQNNVDPWTFGGGTKLEIK
notes: also called RHb-h/V1
- EC50 (read off the curve) (AP33 mimotope peptide H6 [22]): ~0.02 µg/mL
- EC50 (read off the curve) (Peptide D3 [23]): ~0.02 µg/mL
- binding result (E2 peptide B1 [24]): no binding (tested: about 500 ng/ml)
- binding result (E2 peptide C2 [25]): binds

B5: RH-C/RK2b Fab (Fab, V domains shown)
VH: B2 VH
VL: B1 VL with R72G
notes: also called Fab fragment of RH-C/RK2b
- Kd [26]: 50 nM
- Kd [27]: ~0.5 nM

B6: AP33 RH-B/RK2bc (antibody, V domains shown)
VH: B2 VH with T30S, W47Y
VL: B1 VL
notes: COS7 supernatant
- binding result (AP33 mimotope peptide H6 [28]): binds
- binding result (Peptide D3 [29]): binds
- binding result (E2 peptide B1 [30]): no binding (tested: about 800 ng/ml)
- binding result (E2 peptide C2 [31]): binds

B7: humanized AP33 antibody RH-H/RK2bc (antibody, V domains shown)
VH: B1 VH with L97R
VL: B1 VL
- EC50 (read off the curve) (AP33 mimotope peptide H6 [32]): ~0.03 µg/mL
- EC50 (read off the curve) (Peptide D3 [33]): ~0.04 µg/mL
- binding result (E2 peptide B1 [34]): no binding (tested: about 1000 ng/ml)
